Assay results reported in article doi:10.1101/2025.02.07.637169, “Structural basis of flagellar rod assembly on the FliPQR protein-export channel” (bioRxiv, 2025).

T1: FliR-His (Salmonella enterica serovar Typhimurium, UniProt P54702 1-264)
T1 construct: FliR of Salmonella enterica serovar Typhimurium; One FliR subunit stands in the FliP5-FliQ4-FliR1 complex; source: Salmonella SJW1368 carrying pMKM10001 (pTrcCES3/ FliP + FliQ + FliR-His); purified as FliPQR-His complex (LMNG, Ni-NTA, SEC), reconstituted in peptidisc; not shown: His tag (10 residues), C-terminal, kept
T1 sequence: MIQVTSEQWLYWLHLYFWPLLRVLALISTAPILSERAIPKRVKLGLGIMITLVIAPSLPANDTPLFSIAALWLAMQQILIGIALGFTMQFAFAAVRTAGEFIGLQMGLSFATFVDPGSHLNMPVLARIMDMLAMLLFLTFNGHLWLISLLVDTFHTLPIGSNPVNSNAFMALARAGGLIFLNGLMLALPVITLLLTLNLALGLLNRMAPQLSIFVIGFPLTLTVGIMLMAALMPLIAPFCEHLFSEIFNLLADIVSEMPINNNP

B1: FliQ (natural protein)
chain: MTPESVMMMGTEAMKVALALAAPLLLVALITGLIISILQAATQINEMTLSFIPKIVAVFIAIIVAGPWMLNLLLDYVRTLFSNLPYIIG
notes: FliQ of Salmonella enterica serovar Typhimurium; Four FliQ subunits stand in the FliP5-FliQ4-FliR1 complex; source: Salmonella SJW1368 carrying pMKM10001 (pTrcCES3/ FliP + FliQ + FliR-His); purified as FliPQR-His complex (LMNG, Ni-NTA, SEC), reconstituted in peptidisc
B2: FliP (natural protein)
chain: QLPGLISQPLAGGGQSWSLSVQTLVFITSLTFLPAILLMMTSFTRIIIVFGLLRNALGTPSAPPNQVLLGLALFLTFFIMSPVIDKIYVDAYQPFSEQKISMQEALDKGAQPLRAFMLRQTREADLALFARLANSGPLQGPEAVPMRILLPAYVTSELKTAFQIGFTIFIPFLIIDLVIASVLMALGMMMVPPATIALPFKLMLFVLVDGWQLLMGSLAQSFYS
notes: FliP of Salmonella enterica serovar Typhimurium, mature protein after cleavage of the signal peptide (residues 1-21; cleavage between Ala-21 and Gln-22); residue numbers count on the precursor; Five FliP subunits stand in the FliP5-FliQ4-FliR1 complex; also called mature FliP; FliP^A (Mol-A); source: Salmonella SJW1368 carrying pMKM10001 (pTrcCES3/ FliP + FliQ + FliR-His); purified as FliPQR-His …

How the values were obtained:
Assay in all cases: cryo-EM structure; FliPQR-His complex purified from Salmonella membranes and reconstituted in a peptidisc, detergent-free (20 mM Tris-HCl pH 8.0, 150 mM NaCl), fluorinated Fos-Choline 0, 1.0 or 2.0 mM added before grid preparation; single-particle analysis, C1 symmetry, 3.0 Å; closed form
FliP = molecular target: B2; conditions: both partners purified
FliR-His = molecular target: T1, FliR-His; conditions: both partners purified
[1] = molecular target: the molecule itself

| Binder | binding result (FliP) | binding result (FliR-His) | stoichiometry N [1] [subunits] |
| --- | --- | --- | --- |
| B1 | binds | binds |  |
| B2 |  | binds | 5 |
